Data: paper PMC12051055, “Spectroscopy and crystallography define carotenoid oxygenases as a new subclass of mononuclear non-heme Fe^II enzymes” (The Journal of Biological Chemistry, 2025)

Substrate: CC=Cc1ccc(O)c(OC)c1
Assay: steady-state kinetics of cleavage to vanillin by purified enzyme (apparent Km)
Type: biochemical, Neurospora crassa
Conditions: Fe(II)
Text: steady-state kinetics of cleavage to vanillin by purified enzyme (apparent Km) on CAO1 (Neurospora crassa carotenoid oxygenase 1) | wildtype and T151V steady-state kinetics toward isoeugenol

B1: CAO1 (Neurospora crassa carotenoid oxygenase 1) (Neurospora crassa OR74A) (protein)
chain: MAEYVFSDAPKDSHGNGVKDAVPGKQPEELPPAPRYFQGENTAGFMRPVRFEGDITNLEVVGEIPKSIEGTFYRVMPEPHLPSFIPNDPWFNGDGNISGFYFKDGHVDLKQRYVRTEKFVREAEARRSLLGKYRNRYTDLVEFKIRSTANTNIVYWRGQLLALKEDSPPYAMDPETLETFGVYDFDGQLPSLTFTAHPKFDPVTREMVCFGYEAKGDGTRDICYYSFGPDGKIAETVWLVSPVCGMIHDFAVTENFVIFPIIPLVCDVERMKQGGDHWQWDYSIPMYIGVLPRRGAQGSDVKWFEAPHGFAGHVANAFEDDKGHIQLQMAYAKDNVFFWWPDANGKGPRPGEVEAHFANFVLDYQSDKLPLAEPTYLVDDDMEFPRIDDRVATRKHKHTFFCIFDRKPGVTDFEFVMPRAGGGAPMSNGLAHLNHETGDIQRYLPGPRKLTGECIFIPRNSEAAEGDGYVMVLLANYEDMCSELAVLDTKDLTNEVALIKLPVRLRPGLHGNWVDKSDVDGHPAPL
  Km: 86.26 ± 13.49 µM
